Consider four molecules from patent US20110142851A1 (EMERGENT PRODUCT DEVELOPMENT SEATTLE, published 2011).

The target in assay [1] is T1, recombinant human TNF-α (human, UniProt P01375 77-233).
T1 construct: also called rhTNFα
The experiment in a line: ELISA, Xceptor captured by anti-human Fc. (An ELISA detects its analyte on a solid surface through an enzyme-linked reagent.)

Assay [2] addresses T2, recombinant human soluble IL6 receptor (human, UniProt P08887 20-358).
T2 construct: also called sIL6R; sIL-6R
T2 sequence (looked up): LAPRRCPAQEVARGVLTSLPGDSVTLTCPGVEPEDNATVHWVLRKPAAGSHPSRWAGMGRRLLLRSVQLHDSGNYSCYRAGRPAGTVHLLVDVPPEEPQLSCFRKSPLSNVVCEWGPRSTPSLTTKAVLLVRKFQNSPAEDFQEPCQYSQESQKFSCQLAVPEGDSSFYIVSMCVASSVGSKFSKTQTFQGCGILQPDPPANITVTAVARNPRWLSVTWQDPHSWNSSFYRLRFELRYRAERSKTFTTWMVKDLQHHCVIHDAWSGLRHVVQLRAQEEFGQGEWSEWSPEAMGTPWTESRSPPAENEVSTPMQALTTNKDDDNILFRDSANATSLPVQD
The experiment in a line: ELISA, Xceptor captured by anti-human Fc.

Assay [3] deals with T3, hu HIL6 AFH monomer (human).
T3 chain: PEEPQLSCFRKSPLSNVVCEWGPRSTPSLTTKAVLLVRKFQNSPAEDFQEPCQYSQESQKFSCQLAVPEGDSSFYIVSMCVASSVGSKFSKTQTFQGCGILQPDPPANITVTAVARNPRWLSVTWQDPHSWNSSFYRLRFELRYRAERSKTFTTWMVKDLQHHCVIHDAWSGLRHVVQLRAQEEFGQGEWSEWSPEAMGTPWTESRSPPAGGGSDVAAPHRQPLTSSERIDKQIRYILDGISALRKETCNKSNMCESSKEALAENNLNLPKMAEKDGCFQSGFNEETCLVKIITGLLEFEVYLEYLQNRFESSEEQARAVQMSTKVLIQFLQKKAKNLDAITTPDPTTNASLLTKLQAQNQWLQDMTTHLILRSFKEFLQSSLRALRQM
Briefly: SPR Biacore T100, binder captured by anti-human Fc. (In SPR one partner is held on a chip, and binding of the other changes the refractive index at the surface.)

The target of assay [4] is T4, hu HIL6 Fc dimer (dimeric human HIL6/mouse IgG Fc fusion protein) (human).
T4 construct: also called human hyper-IL6 (IL6R-IL6-mIgG); dimeric HIL6
T4 chain: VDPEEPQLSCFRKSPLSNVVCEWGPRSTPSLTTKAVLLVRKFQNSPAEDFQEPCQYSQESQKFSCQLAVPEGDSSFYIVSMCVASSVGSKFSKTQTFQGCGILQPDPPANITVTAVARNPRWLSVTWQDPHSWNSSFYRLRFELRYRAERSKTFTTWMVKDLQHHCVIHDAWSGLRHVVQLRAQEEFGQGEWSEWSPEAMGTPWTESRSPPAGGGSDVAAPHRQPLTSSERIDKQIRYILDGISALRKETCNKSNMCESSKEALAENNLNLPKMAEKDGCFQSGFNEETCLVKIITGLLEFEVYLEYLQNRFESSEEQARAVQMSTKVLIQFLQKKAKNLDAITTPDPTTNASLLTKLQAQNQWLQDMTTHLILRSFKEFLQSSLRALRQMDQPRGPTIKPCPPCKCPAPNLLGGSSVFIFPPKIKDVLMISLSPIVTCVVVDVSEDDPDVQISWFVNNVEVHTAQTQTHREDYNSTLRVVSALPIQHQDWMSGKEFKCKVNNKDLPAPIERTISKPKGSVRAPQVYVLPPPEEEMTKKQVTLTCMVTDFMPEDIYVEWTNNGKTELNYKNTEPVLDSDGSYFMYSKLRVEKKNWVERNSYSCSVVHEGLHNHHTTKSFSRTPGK
The experiment in a line: SPR Biacore T100, binder captured by anti-human Fc.

Assay [5] addresses T5, recombinant human IL6 (human, UniProt P05231 30-212).
T5 construct: also called rhIL6; IL6 monomer
Briefly: SPR Biacore T100, binder captured by anti-human Fc.

Assay [6] deals with T6, sIL6R Fc dimer (UniProt P08887 20-358, limits assumed).
T6 construct: not shown: Fc
T6 sequence (looked up): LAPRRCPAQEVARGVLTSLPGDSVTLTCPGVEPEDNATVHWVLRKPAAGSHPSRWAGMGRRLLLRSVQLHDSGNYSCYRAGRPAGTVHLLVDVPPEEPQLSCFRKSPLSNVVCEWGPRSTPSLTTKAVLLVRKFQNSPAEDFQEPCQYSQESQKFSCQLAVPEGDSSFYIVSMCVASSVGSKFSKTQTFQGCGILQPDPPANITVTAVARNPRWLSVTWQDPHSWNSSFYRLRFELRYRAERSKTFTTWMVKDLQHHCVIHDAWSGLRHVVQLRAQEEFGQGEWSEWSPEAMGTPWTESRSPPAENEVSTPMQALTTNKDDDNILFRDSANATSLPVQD
The experiment in a line: SPR Biacore T100, binder captured by anti-human Fc.

T1 sequence (P01375 77-233 limits assumed): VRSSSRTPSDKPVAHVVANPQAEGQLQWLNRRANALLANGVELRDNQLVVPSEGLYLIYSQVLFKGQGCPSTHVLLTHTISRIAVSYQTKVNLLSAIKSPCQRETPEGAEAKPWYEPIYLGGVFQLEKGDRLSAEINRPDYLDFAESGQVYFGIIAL

B1: TRU(X6T)-1019 (Fc fusion)
chain: EVQLLESGGGLVQPGGSLRLSCAASGFTFSWYLMHWVRQAPGKGLEWVSGIWPSGGHTLYADSVKGRFTISRDNSKNTLYLQMNSLRAEDTAVYYCAREPLLWFGELSYNWFDPWGQGTLVTVSSGGGGSGGGGSGGGGSQDIQMTQSPSSVSASVGDRVTITCRASQGISSWLAWYQQKPGKAPKLLIYAASSLQSGVPSRFSGSGSGTDFTLTISSLQPEDFATYYCQQANSFPLTFGGGTKVEIKTGEPKSSDKTHTCPPCPAPEAAGAPSVFLFPPKPKDTLMISRTPEVTCVVVDVSHEDPEVKFNWYVDGVEVHNAKTKPREEQYNSTYRVVSVLTVLHQDWLNGKAYACAVSNKALPAPIEKTISKAKGQPREPQVYTLPPSRDELTKNQVSLTCLVKGFYPSDIAVEWESNGQPENNYKTTPPVLDSDGSFFLYSKLTVDKSRWQQGNVFSCSVMHEALHNHYTQKSLSLSPGQRHNNSSLNTRTQKARHSPNSLPAQVAFTPYAPEPGSTCRLREYYDQTAQMCCSKCSPGQHAKVFCTKTSDTVCDSCEDSTYTQLWNWVPECLSCGSRCSSDQVETQACTREQNRICTCRPGWYCALSKQEGCRLCAPLRKCRPGFGVARPGTETSDVVCKPCAPGTFSNTTSSTDICRPHQICNVVAIPGNASMDAVCTSTSPTRSMAPGAVHLPQPVSTRSQHTQPTPEPSTAPSTSFLLPMGPSPPAEGSTGD
Consider B1, for which the binding result in assay [1] is on record as “binds”; in assay [2] it was “no binding (tested: 75 pM sIL-6R)”; in assay [6], “no binding (tested: 100 nM)”. Also, the values for the Kd in assay [3], in assay [4] and in assay [5] were 1.9 nM, 300 nM and 0.57 nM, respectively.

B2: TRU(XT6)-1058 (Fc fusion)
chain: LPAQVAFTPYAPEPGSTCRLREYYDQTAQMCCSKCSPGQHAKVFCTKTSDTVCDSCEDSTYTQLWNWVPECLSCGSRCSSDQVETQACTREQNRICTCRPGWYCALSKQEGCRLCAPLRKCRPGFGVARPGTETSDVVCKPCAPGTFSNTTSSTDICRPHQICNVVAIPGNASMDAVCTSTSPTRSMAPGAVHLPQPVSTRSQHTQPTPEPSTAPSTSFLLPMGPSPPAEGSTGDTGEPKSSDKTHTCPPCPAPEAAGAPSVFLFPPKPKDTLMISRTPEVTCVVVDVSHEDPEVKFNWYVDGVEVHNAKTKPREEQYNSTYRVVSVLTVLHQDWLNGKAYACAVSNKALPAPIEKTISKAKGQPREPQVYTLPPSRDELTKNQVSLTCLVKGFYPSDIAVEWESNGQPENNYKTTPPVLDSDGSFFLYSKLTVDKSRWQQGNVFSCSVMHEALHNHYTQKSLSLSPGQRHNNSSLNTRTQKARHSPNSEVQLLESGGGLVQPGGSLRLSCAASGFTFSMYTMHWVRQAPGKGLEWVSWISPSGGWTKYADSVKGRFTISRDNSKNTLYLQMNSLRAEDTAVYYCAVSPWGGPFDYWGQGTLVTVSSGGGGSGGGGSGGGGSQDIQMTQSPSTLSASVGDRVTITCRASQSISSWLAWYQQKPGKAPKLLIYKASTLESGVPSRFSAGGSGTEFTLTISSLQPDDFGTYYCQQYNSYSLTFGGGTKVEII
notes: Xceptor, TNFRSF1B ectodomain N-terminal, anti-IL6xR domain C-terminal
Take B2: the binding result in assay [1] is “binds”; in assay [2] it was “no binding (tested: 75 pM sIL-6R)”.

B3: TRU(XT6)-1013 (Fc fusion)
chain: LPAQVAFTPYAPEPGSTCRLREYYDQTAQMCCSKCSPGQHAKVFCTKTSDTVCDSCEDSTYTQLWNWVPECLSCGSRCSSDQVETQACTREQNRICTCRPGWYCALSKQEGCRLCAPLRKCRPGFGVARPGTETSDVVCKPCAPGTFSNTTSSTDICRPHQICNVVAIPGNASMDAVCTSTSPTRSMAPGAVHLPQPVSTRSQHTQPTPEPSTAPSTSFLLPMGPSPPAEGSTGDTGEPKSSDKTHTCPPCPAPEAAGAPSVFLFPPKPKDTLMISRTPEVTCVVVDVSHEDPEVKFNWYVDGVEVHNAKTKPREEQYNSTYRVVSVLTVLHQDWLNGKAYACAVSNKALPAPIEKTISKAKGQPREPQVYTLPPSRDELTKNQVSLTCLVKGFYPSDIAVEWESNGQPENNYKTTPPVLDSDGSFFLYSKLTVDKSRWQQGNVFSCSVMHEALHNHYTQKSLSLSPGQRHNNSSLNTRTQKARHSPNSEVQLLESGGGLVQPGGSLRLSCAASGFTFSGYVMGWVRQAPGKGLEWVSSISPSGGYTLYADSVKGRFTISRDNSKNTLYLQMNSLRAEDTAVYYCARAFSTRWYWGAFDIWGQGTMVTVSSGGGGSGGGGSGGGGSQDIQMTQSPATLSLSPGERATLSCRASQSVRSYLAWYQQKPGQAPRLLIYDASNRATGIPARFSGSGSGTDFTLTITSLQPEDIATYYCQQYDNLPLTFGGGTKVEIK
notes: as for B2
On to B3, for which the Kd in assay [3] is 190 nM; in assay [4], 270 nM. Also, the binding result in assay [5] and in assay [6] was “no binding (tested: 100 nM)” in each case.

B4: TRU(XT6)-1019 (Fc fusion)
chain: LPAQVAFTPYAPEPGSTCRLREYYDQTAQMCCSKCSPGQHAKVFCTKTSDTVCDSCEDSTYTQLWNWVPECLSCGSRCSSDQVETQACTREQNRICTCRPGWYCALSKQEGCRLCAPLRKCRPGFGVARPGTETSDVVCKPCAPGTFSNTTSSTDICRPHQICNVVAIPGNASMDAVCTSTSPTRSMAPGAVHLPQPVSTRSQHTQPTPEPSTAPSTSFLLPMGPSPPAEGSTGDTGEPKSSDKTHTCPPCPAPEAAGAPSVFLFPPKPKDTLMISRTPEVTCVVVDVSHEDPEVKFNWYVDGVEVHNAKTKPREEQYNSTYRVVSVLTVLHQDWLNGKAYACAVSNKALPAPIEKTISKAKGQPREPQVYTLPPSRDELTKNQVSLTCLVKGFYPSDIAVEWESNGQPENNYKTTPPVLDSDGSFFLYSKLTVDKSRWQQGNVFSCSVMHEALHNHYTQKSLSLSPGQRHNNSSLNTRTQKARHSPNSEVQLLESGGGLVQPGGSLRLSCAASGFTFSWYLMHWVRQAPGKGLEWVSGIWPSGGHTLYADSVKGRFTISRDNSKNTLYLQMNSLRAEDTAVYYCAREPLLWFGELSYNWFDPWGQGTLVTVSSGGGGSGGGGSGGGGSQDIQMTQSPSSVSASVGDRVTITCRASQGISSWLAWYQQKPGKAPKLLIYAASSLQSGVPSRFSGSGSGTDFTLTISSLQPEDFATYYCQQANSFPLTFGGGTKVEIK
notes: as for B2
As for B4, the binding result is recorded as “binds” in assay [1], “no binding (tested: 75 pM sIL-6R)” in assay [2] and “no binding (tested: 100 nM)” in assay [6]. Further, the Kd is 17 nM in assay [3], 5.7 nM in assay [4] and 1 nM in assay [5].

In general, Kd refers to a measure of binding affinity in units of concentration.
